Source: US20220340649A1 (SENELIX, published 2022)
Changes are numbered by the printed parent chain.

Tests used:
[1] = molecular target: T1, human YKL-40 (chitinase-3-like protein 1) (human, UniProt P36222 22-383); assay: Octet BLI, antigen immobilized on AR2G sensor, antibody 0-1 µM; hYKL-40 on the sensor
T1 construct: Antigen protein immobilized in ELISA and on the Octet AR2G sensor; also called hYKL-40; human YKL-40 antigen
Protocol: (§1) To reconfirm the EC₅₀ value measured by ELISA, the affinity for 4E3-F2 (M3) and 3A10-F1 (H1) was measured using an Octet instrument. Cross-binding was investigated for the two antibodies using hYKL-40 and mYKL-40. Each antigen protein was immobilized using the AR2G (Amine Reactive 2nd Generation) sensor, and the direct immobilization method of binding each antibody with different concentrations (0-1 μM) was employed.

[2] = molecular target: T1, human YKL-40 (chitinase-3-like protein …); assay: ELISA, purified IgG on antigen
[3] = molecular target: T1, human YKL-40 (chitinase-3-like protein …); assay: ELISA, IgG titrated on hYKL-40, A450nm normalized
[4] = molecular target: T2, mouse YKL-40 (mouse, UniProt Q61362 30-389); assay: Octet BLI, antigen immobilized on AR2G sensor
T2 construct: Antigen protein immobilized in ELISA and on the Octet AR2G sensor; also called mYKL-40; mouse YKL-40 antigen
Protocol: as §1

[5] = molecular target: T2, mouse YKL-40; assay: ELISA, purified IgG on antigen
[6] = molecular target: T2, mouse YKL-40; assay: Octet BLI, antigen immobilized on AR2G sensor, antibody 0-1 µM; mYKL-40 on the sensor
Protocol: as §1

[7] = molecular target: T1, human YKL-40 (chitinase-3-like protein …); assay: ELISA, Fab protein titrated on hYKL-40 antigen, A450nm normalized
[8] = molecular target: T2, mouse YKL-40; assay: ELISA, Fab protein titrated on mYKL-40 antigen, A450nm normalized

T2 sequence (Q61362 30-389): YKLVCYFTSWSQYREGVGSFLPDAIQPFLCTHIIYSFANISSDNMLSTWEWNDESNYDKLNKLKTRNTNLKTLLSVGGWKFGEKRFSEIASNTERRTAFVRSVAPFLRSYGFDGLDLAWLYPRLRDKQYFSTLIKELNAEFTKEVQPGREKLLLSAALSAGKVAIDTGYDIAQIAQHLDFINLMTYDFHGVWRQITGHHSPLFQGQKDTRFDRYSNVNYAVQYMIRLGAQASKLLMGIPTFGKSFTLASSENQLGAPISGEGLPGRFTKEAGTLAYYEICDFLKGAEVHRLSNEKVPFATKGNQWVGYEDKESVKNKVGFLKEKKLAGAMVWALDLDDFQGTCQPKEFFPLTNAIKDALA
T1 sequence (P36222 22-383 limits assumed): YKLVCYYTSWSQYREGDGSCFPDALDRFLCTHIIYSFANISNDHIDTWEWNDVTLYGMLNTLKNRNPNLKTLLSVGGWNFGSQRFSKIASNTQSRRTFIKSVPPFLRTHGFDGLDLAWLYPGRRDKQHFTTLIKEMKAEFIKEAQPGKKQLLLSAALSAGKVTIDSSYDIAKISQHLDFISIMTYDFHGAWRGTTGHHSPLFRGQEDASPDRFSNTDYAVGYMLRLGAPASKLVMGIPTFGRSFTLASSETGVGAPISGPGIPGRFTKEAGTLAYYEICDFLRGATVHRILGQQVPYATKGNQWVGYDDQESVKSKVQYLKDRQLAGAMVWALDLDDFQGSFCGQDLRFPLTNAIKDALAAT

B1: 3A10-F1 (H1) human IgG antibody (antibody, V domains shown)
VH: EVQLVESGGGLVQPGGSLRLSCAASGFTFSNYAMSWVRQAPGKGLEWVSGISGSGGTTYYADSVKGRFTISRDNSKNTLYLQMNSLRAEDTAVYYCAGVGTFDVWGQGTLVTVSS
VL: DIQMTQSPSSLSASVGDRVTITCRASQTISSWLNWYQQKPGKAPKLLIYAASRLQSGVPSRFSGSGSGTDFTLTISSLQPEDFATYYCQQSYSTPLTFGQGTKVEIK
notes: The phage clone was converted to human IgG and produced in Expi293 cells; also called human YKL-40 antibody 3A10-F1 (H1)
B1 showed a Kd [1] of 0.05 nM, an EC50 [2] of 0.582 nM and an EC50 [3] of 0.5 nM. B1: no binding (tested: 0-1 µM) [4].

B2: 4E3-F2 (M3) human IgG antibody (antibody, V domains shown)
VH: QVQLVQSGAEVKKPGSSVKVSCKASGGTFSSYDIHWVRQAPGQGLEWMGIISPYLGITIYAQKFQGRVTITADESTSTAYMELSSLRSEDTAVYYCARRYFYYQSEAFDYWGQGTLVTVSS
VL: B1 VL with T28S, S31N, W32Y, R53T, T94F
notes: The phage clone was converted to human IgG and produced in Expi293 cells; also called mouse YKL-40 antibody 4E3-F2 (M3)
B2 gave a Kd [1] of 57 nM, an EC50 [5] of 0.067 nM and a Kd [6] of 67 nM.

B3: 3A10-F1 (H1) Fab (Fab, V domains shown)
VH: B1 VH
VL: B1 VL
notes: Fab from the Fab-I phage library; also called Fab protein of 3A10-F1 (H1)
B3 showed an EC50 [7] of 0.74 nM.

B4: 4E3-F2 (M3) Fab (Fab, V domains shown)
VH: B2 VH
VL: B1 VL with T28S, S31N, W32Y, R53T, T94F
notes: Fab from the Fab-II phage library; also called Fab protein of 4E3-F2 (M3)
Binder B4 has an EC50 [8] of 4.3 nM and an EC50 [7] of 23.6 nM.
